Experimental data taken from patent US20240174727A1, “LONG-ACTING NATRIURETIC PEPTIDES AND USES THEREOF” (Eli Lilly and Company, priority 2022, published 2024).

Experiments:
human NPRA = biological target: T1, human NPRA (human, UniProt P16066 33-1061); test: cell-based or functional assay
T1 sequence (looked up): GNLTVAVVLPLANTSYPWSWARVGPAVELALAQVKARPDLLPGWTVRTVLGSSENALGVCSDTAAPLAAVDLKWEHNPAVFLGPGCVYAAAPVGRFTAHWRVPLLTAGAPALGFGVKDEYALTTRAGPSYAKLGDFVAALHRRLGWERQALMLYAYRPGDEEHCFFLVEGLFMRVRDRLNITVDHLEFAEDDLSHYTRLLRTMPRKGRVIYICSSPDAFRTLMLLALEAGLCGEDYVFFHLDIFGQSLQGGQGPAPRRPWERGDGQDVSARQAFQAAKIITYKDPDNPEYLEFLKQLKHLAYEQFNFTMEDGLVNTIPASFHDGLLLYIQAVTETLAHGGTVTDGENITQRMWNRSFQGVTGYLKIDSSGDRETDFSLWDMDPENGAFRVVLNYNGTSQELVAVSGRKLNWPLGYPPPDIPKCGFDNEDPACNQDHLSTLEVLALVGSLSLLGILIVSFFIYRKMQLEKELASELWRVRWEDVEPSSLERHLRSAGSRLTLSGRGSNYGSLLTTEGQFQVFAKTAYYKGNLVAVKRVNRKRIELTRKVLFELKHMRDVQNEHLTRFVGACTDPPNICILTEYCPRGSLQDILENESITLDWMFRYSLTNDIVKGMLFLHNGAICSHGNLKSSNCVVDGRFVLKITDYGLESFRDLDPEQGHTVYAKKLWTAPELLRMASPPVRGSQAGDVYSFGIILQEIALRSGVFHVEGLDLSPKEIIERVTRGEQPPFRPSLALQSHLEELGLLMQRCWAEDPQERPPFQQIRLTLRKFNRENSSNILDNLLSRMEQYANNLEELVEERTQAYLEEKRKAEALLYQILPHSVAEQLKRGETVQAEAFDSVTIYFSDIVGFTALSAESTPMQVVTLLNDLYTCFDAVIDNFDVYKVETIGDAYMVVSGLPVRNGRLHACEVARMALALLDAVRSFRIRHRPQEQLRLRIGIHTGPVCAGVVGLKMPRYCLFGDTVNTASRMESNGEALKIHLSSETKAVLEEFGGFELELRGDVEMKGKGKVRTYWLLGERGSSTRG

rat NPRA = biological target: T2, rat NPRA (rat, UniProt P18910 29-1057); test: cell-based or functional assay
T2 sequence (looked up): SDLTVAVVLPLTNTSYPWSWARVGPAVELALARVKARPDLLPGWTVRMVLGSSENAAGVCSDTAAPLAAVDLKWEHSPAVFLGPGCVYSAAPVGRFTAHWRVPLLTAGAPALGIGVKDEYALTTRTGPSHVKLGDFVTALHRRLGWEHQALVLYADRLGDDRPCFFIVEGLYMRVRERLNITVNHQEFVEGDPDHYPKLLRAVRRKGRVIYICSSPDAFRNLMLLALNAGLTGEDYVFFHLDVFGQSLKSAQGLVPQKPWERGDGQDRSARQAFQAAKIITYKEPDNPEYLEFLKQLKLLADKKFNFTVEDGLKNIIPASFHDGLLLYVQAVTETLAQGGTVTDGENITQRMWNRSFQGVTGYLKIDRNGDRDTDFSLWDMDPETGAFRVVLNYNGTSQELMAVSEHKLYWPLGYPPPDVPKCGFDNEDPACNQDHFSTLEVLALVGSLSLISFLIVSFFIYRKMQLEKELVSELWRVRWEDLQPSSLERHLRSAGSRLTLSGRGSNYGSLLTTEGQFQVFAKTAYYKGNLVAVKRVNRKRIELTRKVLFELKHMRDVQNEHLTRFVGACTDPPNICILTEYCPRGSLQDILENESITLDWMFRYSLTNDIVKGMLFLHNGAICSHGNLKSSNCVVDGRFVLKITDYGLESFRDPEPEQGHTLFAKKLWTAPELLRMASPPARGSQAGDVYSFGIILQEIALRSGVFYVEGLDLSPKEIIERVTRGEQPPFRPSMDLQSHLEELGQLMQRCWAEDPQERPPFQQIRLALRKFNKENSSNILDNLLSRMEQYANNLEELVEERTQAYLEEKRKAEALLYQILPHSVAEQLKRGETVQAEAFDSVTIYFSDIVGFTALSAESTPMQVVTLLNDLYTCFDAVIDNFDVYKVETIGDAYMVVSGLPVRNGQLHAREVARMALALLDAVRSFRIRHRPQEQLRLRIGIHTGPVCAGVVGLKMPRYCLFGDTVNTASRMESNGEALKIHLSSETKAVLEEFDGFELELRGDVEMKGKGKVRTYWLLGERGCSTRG

Binder	cGMP Assay (EC50, pM) w/BSA, hNPRA (human NPRA)	cGMP Assay (EC50, pM) w/Casein, hNPRA (human NPRA)	cGMP Assay (EC50, pM) w/BSA, rNPRA (rat NPRA)	cGMP Assay (EC50, pM) w/Casein, rNPRA (rat NPRA)
SXRRSSCFGKRIDRIGHYSGLGCPSFRHGGKSSGAPPPS (N-terminus acylated with HOOC-(CH2)18-CO-(γGlu)-; (AEEA)6 after EKEKEKG; 4Pal; thioacetal linkage between the two bracketed Cys; C-terminal amide) [HOOC-(CH2)18-CO-(γGlu)-EKEKEKG-(AEEA)6-S-4Pal-RRSS[CFGKRIDRIGHYSGLGC]PSFRHGGKSSGAPPPS-NH2]	4470 pM	527 pM	312000 pM	2630 pM
EKXRSSCFGKRIDRIGHYSGLGCPSFRHGSPSSGAPPPS (N-terminus acylated with HOOC-(CH2)18-CO-(γGlu)-; (AEEA)8 after EKEKEKG; βAla; thioacetal linkage between the two bracketed Cys; C-terminal amide) [HOOC-(CH2)18-CO-(γGlu)-EKEKEKG-(AEEA)8-EK-βAla-RSS[CFGKRIDRIGHYSGLGC]PSFRHGSPSSGAPPPS-NH2]	–	497 pM	–	11200 pM
SXRRSSCFGKRIDRIGHQSGLGCPSFRHGGKSSGAPPPS (N-terminus acylated with HOOC-(CH2)18-CO-(γGlu)-; PEG24 after EKEKEKG; 4Pal; thioacetal linkage between the two bracketed Cys; C-terminal amide) [HOOC-(CH2)18-CO-(γGlu)-EKEKEKG-PEG24-S-4Pal-RRSS[CFGKRIDRIGHQSGLGC]PSFRHGGKSSGAPPPS-NH2]	2560 pM	488 pM	276000 pM	16800 pM
XEKEKEKGEKPRSSCFGKRIDRIGXQSGLGCPSFRHGSPSSGAPPPS (N-terminus acylated with HOOC-(CH2)18-CO-(γGlu)-; Orn; thioacetal linkage between the two bracketed Cys; C-terminal amide) [HOOC-(CH2)18-CO-(γGlu)-EKEKEKGEKPRSS[CFGKRIDRIG-Orn-QSGLGC]PSFRHGSPSSGAPPPS-NH2]	–	–	–	192000 pM
SXRRSSCFGKRIDRIGHYSGLGCPSFRHGSPSSGAPPPS (N-terminus acylated with HOOC-(CH2)18-CO-(γGlu)-; (AEEA)8 after EKEKEKG; 4Pal; thioacetal linkage between the two bracketed Cys; C-terminal amide) [HOOC-(CH2)18-CO-(γGlu)-EKEKEKG-(AEEA)8-S-4Pal-RRSS[CFGKRIDRIGHYSGLGC]PSFRHGSPSSGAPPPS-NH2]	3770 pM	646 pM	149000 pM	3780 pM
SXXRSSCFGGRIDRIGHYSGLGCPSFRHGSPSSGAPPPS (N-terminus acylated with HOOC-(CH2)18-CO-(γGlu)-; (AEEA)6 after EKEKEKG; 4Pal; βAla; thioacetal linkage between the two bracketed Cys; C-terminal amide) [HOOC-(CH2)18-CO-(γGlu)-EKEKEKG-(AEEA)6-S-4Pal-βAla-RSS[CFGGRIDRIGHYSGLGC]PSFRHGSPSSGAPPPS-NH2]	–	1530 pM	–	–
